Assay results from publication PMC6477676, “Staufen2-mediated RNA recognition and localization requires combinatorial action of multiple domains”.
Positions count from the first letter of the chain named.

T1: mStau2 dsRBD1-2 E99A (Mus musculus, UniProt Q8CJ67 8-181, E99A)
T1 sequence: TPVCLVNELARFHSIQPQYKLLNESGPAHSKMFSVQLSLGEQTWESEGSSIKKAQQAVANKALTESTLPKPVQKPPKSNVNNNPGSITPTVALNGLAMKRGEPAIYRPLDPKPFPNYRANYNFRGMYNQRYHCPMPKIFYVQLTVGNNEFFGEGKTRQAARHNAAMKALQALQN

T2: mStau2 dsRBD1-2 E15A (Mus musculus, UniProt Q8CJ67 8-181, E15A)
T2 sequence: T1 sequence with E8A, A92E

T3: mStau2 dsRBD1-2 H36A (Mus musculus, UniProt Q8CJ67 8-181, H36A)
T3 sequence: T1 sequence with H29A, A92E

T4: mStau2 dsRBD1 (Mus musculus, UniProt Q8CJ67 8-75)
T4 sequence: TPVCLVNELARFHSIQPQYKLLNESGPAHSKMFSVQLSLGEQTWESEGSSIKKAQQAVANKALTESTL

T5: mStau2 dsRBD1-4 (Mus musculus, UniProt Q8CJ67 8-375)
T5 sequence: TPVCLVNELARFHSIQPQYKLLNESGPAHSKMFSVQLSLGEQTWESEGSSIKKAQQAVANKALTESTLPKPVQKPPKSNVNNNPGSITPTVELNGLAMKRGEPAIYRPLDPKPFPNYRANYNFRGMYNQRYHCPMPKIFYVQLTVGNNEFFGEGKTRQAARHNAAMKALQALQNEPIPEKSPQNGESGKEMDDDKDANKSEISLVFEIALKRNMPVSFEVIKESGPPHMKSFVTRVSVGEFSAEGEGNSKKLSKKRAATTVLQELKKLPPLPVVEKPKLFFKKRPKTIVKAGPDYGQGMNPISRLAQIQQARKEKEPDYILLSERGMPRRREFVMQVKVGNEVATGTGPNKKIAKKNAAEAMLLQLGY

T6: mStau2 dsRBD1-2 F40A (Mus musculus, UniProt Q8CJ67 8-181, F40A)
T6 sequence: T1 sequence with F33A, A92E

B1: SRS* (SRS3) (structured_RNA)
RNA: GGUAUGUGUGAAUGUGCAUGAAUAUAUAUAUAUAUGCAUAUAUAUAUUUGUAUAUGUUCACACAUG

Legend:
[1] = biological target: T1, mStau2 dsRBD1-2 E99A; assay: SPR; Hill n 1.5; SPR: HBS-EP (10 mM HEPES pH 7.4, 150 mM NaCl, 3 mM EDTA, 0.005% P20); EMSA: 5 nM RNA, protein buffer (40 mM Bis-Tris pH 7, 150 mM NaCl, 2 mM DTT presumed), 4% glycerol, 30 ug/mL yeast tRNA, RT; NMR: 150 mM NaCl, 20 mM Na phosphate pH 7.0, 5 mM DTT, 298 K; conditions: protein: recombinant; label: 5' 32P (EMSA); biotin (SPR); hairpin, 18 bp stem
[2] = biological target: T2, mStau2 dsRBD1-2 E15A; assay: SPR; Hill n 1; SPR: HBS-EP (10 mM HEPES pH 7.4, 150 mM NaCl, 3 mM EDTA, 0.005% P20); EMSA: 5 nM RNA, protein buffer (40 mM Bis-Tris pH 7, 150 mM NaCl, 2 mM DTT presumed), 4% glycerol, 30 ug/mL yeast tRNA, RT; NMR: 150 mM NaCl, 20 mM Na phosphate pH 7.0, 5 mM DTT, 298 K; conditions: protein: recombinant; label: 5' 32P (EMSA); biotin (SPR); hairpin, 18 bp stem
[3] = biological target: T3, mStau2 dsRBD1-2 H36A; assay: as above; conditions: protein: recombinant; label: 5' 32P (EMSA); biotin (SPR); hairpin, 18 bp stem
[4] = biological target: T4, mStau2 dsRBD1; assay: SPR; up to 1 uM; SPR: HBS-EP (10 mM HEPES pH 7.4, 150 mM NaCl, 3 mM EDTA, 0.005% P20); EMSA: 5 nM RNA, protein buffer (40 mM Bis-Tris pH 7, 150 mM NaCl, 2 mM DTT presumed), 4% glycerol, 30 ug/mL yeast tRNA, RT; NMR: 150 mM NaCl, 20 mM Na phosphate pH 7.0, 5 mM DTT, 298 K; conditions: protein: recombinant; label: 5' 32P (EMSA); biotin (SPR); imperfect hairpin, 26 bp with two bulges
[5] = biological target: T5, mStau2 dsRBD1-4; assay: SPR; Hill n 1.7; text says 330 nM; SPR: HBS-EP (10 mM HEPES pH 7.4, 150 mM NaCl, 3 mM EDTA, 0.005% P20); EMSA: 5 nM RNA, protein buffer (40 mM Bis-Tris pH 7, 150 mM NaCl, 2 mM DTT presumed), 4% glycerol, 30 ug/mL yeast tRNA, RT; NMR: 150 mM NaCl, 20 mM Na phosphate pH 7.0, 5 mM DTT, 298 K; conditions: protein: recombinant; tags: HisSUMO removed; label: 5' 32P (EMSA); biotin (SPR); imperfect hairpin, 26 bp with two bulges
[6] = biological target: T6, mStau2 dsRBD1-2 F40A; assay: SPR; Hill n 1; SPR: HBS-EP (10 mM HEPES pH 7.4, 150 mM NaCl, 3 mM EDTA, 0.005% P20); EMSA: 5 nM RNA, protein buffer (40 mM Bis-Tris pH 7, 150 mM NaCl, 2 mM DTT presumed), 4% glycerol, 30 ug/mL yeast tRNA, RT; NMR: 150 mM NaCl, 20 mM Na phosphate pH 7.0, 5 mM DTT, 298 K; conditions: protein: recombinant; label: 5' 32P (EMSA); biotin (SPR); imperfect hairpin, 26 bp with two bulges

Row | Binder | Kd [1] [nM] | Kd [2] [nM] | Kd [3] [nM] | binding result [4] | Kd [5] [nM] | Kd [6] [nM]
1 | GGUAUAUACAUGCACAUGCAAUUUGUGUAUGUGUAUGUAUAUA (structured_RNA) [SRS2+5] | 635 ± 308 | 132 ± 31 | 701 ± 386 |  |  | 
2 | B1 |  |  |  | no binding | 287 ± 127 | 769 ± 427
